These results are taken from paper PMC5581337.

The target in this experiment is HA-NRX2αS1(+) S2(+) S3(+) S4(−) (extracellularly HA-tagged neurexin2α without the insert at splice site 4) (mouse) (UniProt E9Q7X7). Description: cell surface binding assay; Scatchard plot analysis of IgSF21-Fc bound to COS-7 cells expressing HA-NRX2αS4(-), n = 30 cells.

In general, Kd refers to a measure of binding affinity in units of concentration. High values mean lower affinity, low ones higher affinity. As to “IgSF21-Fc (ectodomain of rat IgSF21 fused to the human immunoglobulin Fc region) (from UniProt M0RAS4 25-448) (Fc fusion)”, the Kd was 21 nM.
